# Test results: the RNAGym collection of RNA variant scans (doi:10.1073/pnas.2313332121)
# B1: TPR t1 (parent)
# chain: GACCAAUCUGCCCUCAGAGCUCGAGAACAUCUUCGGAUGCAGAGGAGGCAGGCUUCGGUGGCGCGAUAGCGCCAACGUCCUCAACCUCCAAUGCAUCCCACCACAUGAUGAUGCCUGAAGAGCCUUGGUUUUUUG
# Variants of: B1
# Assay: polymerase ribozyme fitness, log enrichment relative to wild type (log ratio); higher = more active; in vitro selection for triplet polymerase activity
# How it was run: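 Both subunits of a heterodimeric triplet polymerase ribozyme were given their own mutant library, built by PCR and transcribed. Each library was annealed with a biotinylated primer, the partner subunit and triplets, incubated frozen at −7 °C, and its extended constructs gel-excised, captured on streptavidin beads and amplified by RT-PCR, all in one round done in triplicate. Fitness is the logarithm of genotype enrichment relative to wild-type enrichment, with replicates averaged by inverse-variance weighting. That logarithm is base 2, and Illumina-sequenced genotypes needed ≥10 input reads and ≥1 read per output.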
row,Variant,polymerase ribozyme fitness (log ratio)
1,A66C C86U C114G U129G,-4.68
2,G63C G117U,-2.64
3,G63U C94A A108G,-5.53
4,G63C U92A C98U,-5.26
5,C64U A118G,-1.18
6,G63U U87G G117U C123A,-3.97
7,G63C C82G A121C G128C,-1.24
8,C64U U78A,-0.358
9,G63U G127U,-1.73
10,G63C C80A,-3.71
11,G63C C80G,-6.96
12,C64U C82U G93U C94U U96C C123U,-3.01
13,C64U C115A,-0.337
14,A66U C79G,-4.01
15,G63U A83G,-1.76
16,C64A A83G U92G C99U C104A,-8.04
17,C64A C94A,-6.34
18,C64G U78G G120A A121G C123A U131C,-4.99
19,C64A U87A G93A U112A,-5.11
20,G63C C85G C102A,-2.51
21,G65C C124A,-4.91
22,C64U G93A U96A U126G,-5.25
23,G63U C99U U106A,-3.55
24,A66C A111G G117U,-7.39

row,Variant,polymerase ribozyme fitness (log ratio)
1,G63U C86U U112A,-0.646
2,G63U U133A,-2.29
3,C64U C73G C94U G120C,-3.99
4,C64U C76G C85A,-3.38
5,C64U G122A,-0.796
6,G63C U96A,-2.05
7,A66C A75G,-1.09
8,A66C U78C C101G C123A U132A,-3.72
9,C64U A103C G117U,-6.58
10,G63U C101U C115U C124U,-3.55
11,A66C A95G,-1.6
12,G63C C80U A118C G120A,-3.34
13,C64U,-0.125
14,C64G,-6.67
15,C64A,-6.28
16,A66U C124G,0.671
17,C64U G77A C80A U92C,-5.1
18,C64U A111G,1.06
19,G63U G77U U109A G135U,-7.04
20,G63U C101A U116C A119G G120U,-3.85
21,G63C U129A,-2.09
22,G63C U129G,-1.93
23,G63C U129C,-2
24,G63U A84G,-2.18

row,Variant,polymerase ribozyme fitness (log ratio)
1,G65A U106G,-6.66
2,A66U C73A C85G,-2.04
3,C64U U78C A83C A100C C101G U129G,-3.92
4,G63C C98G U116A C124G,-5.39
5,C64U G127U,-0.401
6,C64U G113C,-0.91
7,C64U G113U,-2.54
8,G63U C64G,-4.92
9,G63U C64A,-6.48
10,G63U C64U,-6.21
11,A66G U131G,-2.21
12,C64U C85A U96G U125A,-2.82
13,C64U C97A,-5.08
14,G63C C79G C123U C124G,0.0911
15,C64U G65A,-4.3
16,A66G G71A A83C C88U U106A U130G,-3.75
17,C64U A91C G93A G120A U133G,-1.92
18,A66G A100U G120C,-0.756
19,G63U U78C C94A,-3.61
20,G63U U78C C101A,-4.07
21,G63C C86U G120A,-0.703
22,G63U U112A,-0.0798
23,G63U U112C,-0.421
24,G63U G120U U126A,-1.69

row,Variant,polymerase ribozyme fitness (log ratio)
1,G65U C70U,-5.58
2,G63C G113C,-3.38
3,C64G C123G,-5.33
4,C64G C123U,-3.63
5,C64U G110C,-3.51
6,G63U U112A A119G,-0.127
7,G63U C123G,0.817
8,G63C A111U G122A,-5.6
9,G65A C72U,-6.47
10,A66C C72U C80U U126G G128A,-4.37
11,G63C C73G C115G,-5.56
12,A66C G69C C97G C101A G107A U112G U130G,-6.88
13,A66C C70U G113A,-2.81
14,G65U C73U,-5.34
15,G63U U81G A121C,-3.58
16,G63U G77C C124U,-0.341
17,G63C C89A U116G,-4.71
18,C64U C72A A108C,-5.82
19,C64U C114G C115A C123G C124A,-4.37
20,G63U C86A,-2.12
21,G65U G69U G113A U130G,-4.13
22,G63C U87A A100U G127C,-2.77
23,C64G C82G C89U A100G A111C U116A U129G,-5.44
24,G65A G110A,-5.47

row,Variant,polymerase ribozyme fitness (log ratio)
1,G63C C104A,-1.86
2,C64U A95G C115G,-2.07
3,C64U C89G,-1.73
4,C64U C89A,-1.58
5,C64U C89U,-0.57
6,C64U A111C U112C,-0.987
7,G63U A83G C85A U129A,-2.64
8,G63U C94G A121U,0.0576
9,G63U U125A,-1.51
10,C64U G107U,-5.43
11,G63C U81C A90U,-3.06
12,G63U C89G,-1.88
13,A66C U112A G128C,-4.27
14,G63U U78C C123U,-1.9
15,A66G C124G G128A,-1.05
16,C64U A84C,0.992
17,C64U A84U,-0.154
18,G63U G77A,-3.45
19,G65A G77A,-5.24
20,G63C A111C A121C,-0.162
21,G65U C123G,-4.68
22,A66C C88U G113U,-5.8
23,A66U C72G,-1.63
24,C64U C86A G122A U132A,-2.78

row,Variant,polymerase ribozyme fitness (log ratio)
1,C64U C72G U78A G127U U129C,-1.9
2,G63U U109G,-6.35
3,C64A G110A G120A,-7.98
4,A66C C85U C86U C97U,-3.15
5,A66U A74G A118U,-0.793
6,C64U C70A A111C C115G G128U,-5.81
7,A66C G93A A121G,-0.199
8,G65C C85U A108U C123G,-7.43
9,C64U A111C C115A,-4.52
10,G63C G65A,-5.84
11,G63C C72G,-5.46
12,G65A C88G,-5.43
13,A66U A90G A91G A103G G107C A121G,-5.84
14,G63U C73A,-2.51
15,G63C C72A C79G,-5.56
16,C64U C79A G110A,-3.21
17,C64U A103U,-3.47
18,A66C C85A,-3.06
19,C64U A84U U87A,-1.17
20,C64U C79U U106A U109A,-5.15
21,G63U U116C U129A,-3.33
22,C64G C114U,-6.35
23,C64G C114G,-6.51
24,C64U C101U,0.0607

row,Variant,polymerase ribozyme fitness (log ratio)
1,A66G U78C U87G,-0.388
2,G63C C73U,-0.69
3,A66C C124U,0.285
4,C64U A83U A95G G127C,-2.12
5,G63U G113A,-1.99
6,G63U G113C,-2.98
7,G63U G113U,-4.29
8,G63U C72A,-4.54
9,G63U C72G,-3.89
10,G63U U131C U132A,-1.24
11,A66C U96C,-2.57
12,G63U C79A G110U,-5.14
13,A66G G122A U129C,-2.27
14,C64U U81G,-4.28
15,A66C G120U U132C,-0.962
16,G63U C72U C82G G113C,-4.22
17,G63C G135U,-1.25
18,G63U C101U,-2.57
19,G63U G107A,-4.13
20,C64A U112C,-4.53
21,C64U U131A,0.0289
22,G63U A91C,-3.19
23,A66G C72G A95U G117U U132C,-6.16
